This passage reports stoichiometry N results from article PMC8016914.

The target of this assay is T1, PsbS modified to contain a strep-tag at the C terminus (Arabidopsis thaliana), Q9XF91.
T1 chain: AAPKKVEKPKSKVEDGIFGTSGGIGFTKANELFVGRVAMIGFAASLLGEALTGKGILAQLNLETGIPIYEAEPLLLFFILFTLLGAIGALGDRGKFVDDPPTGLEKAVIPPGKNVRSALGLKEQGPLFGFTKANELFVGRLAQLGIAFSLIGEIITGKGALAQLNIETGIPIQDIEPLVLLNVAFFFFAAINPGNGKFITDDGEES
As to the kind of experiment: SDS-PAGE and immunoblot; PsbS in detergent and in LHCII + PsbS proteoliposomes (thylakoid lipids); monomeric (M) and dimeric (D) bands detected with an anti-PsbS antibody. As to conditions: remark: other sources report otherwise. For orientation: Immunoblotting shows a protein as a band on a membrane.

B1: PsbS modified to contain a strep-tag at the C terminus, Q9XF91 60-265 (natural protein)
chain: T1 chain
For the molecule B1, the stoichiometry N came to 2.

For orientation: stoichiometry N means the number of molecules, sites or subunits per partner or assembly.
